Measured values: PMC10339645, “Kinetic characterization of annotated glycolytic enzymes present in cellulose-fermenting Clostridium thermocellum suggests different metabolic roles” (Biotechnology for Biofuels and Bioproducts, 2023)

Assays:
PfkA [1] = molecular target: T1, PfkA (Acetivibrio thermocellus, UniProt A3DEW4); assay: coupled NADH oxidation at […] nm, relative activity; type: biochemical; details: inhibitor; GTP as phosphate donor; 2.5 mM MgCl2; NH4Cl; 55 °C
T1 construct: N-terminal His6 tag with ~4-kDa linker (pRSET-A, plasmid pAHCT1261), tag kept; codon-optimized, E. coli T7 Shuffle; ~40 kDa monomer

PfkB [2] = molecular target: T2, PfkB (Acetivibrio thermocellus, UniProt A3DCE8); assay: coupled NADP+ reduction at […] nm, relative activity; type: biochemical; details: inhibitor; GTP as phosphate donor 2.24 mM; fructose 2.24 mM; 55 °C
T2 construct: gene Cthe_0389; N-terminal His6 tag with ~4-kDa linker (pRSET-A, plasmid pAHCT0389), tag kept; codon-optimized, E. coli T7 Shuffle; ~40 kDa monomer

PfkA [3] = molecular target: T1, PfkA; assay: coupled NADH oxidation at […] nm, relative activity; type: biochemical; details: inhibitor; 2 mM F6P, 2 mM ATP or GTP; NH4Cl; 55 °C
PfkB [4] = molecular target: T2, PfkB; assay: coupled NADP+ reduction at […] nm, relative activity; type: biochemical; details: inhibitor; fructose 2.24 mM, phosphate donor 2.24 mM; 55 °C
purified protein [5] = substrate: Nc1nc2c(ncn2[C@@H]2O[C@H](COP(=O)(O)OP(=O)(O)OP(=O)(O)O)[C@@H](O)[C@H]2O)c(=O)[nH]1; assay: purified protein; type: biochemical, Acetivibrio thermocellus
purified protein [6] = substrate: Nc1ncnc2c1ncn2[C@@H]1O[C@H](COP(=O)(O)OP(=O)(O)OP(=O)(O)O)[C@@H](O)[C@H]1O; assay: purified protein; type: biochemical, Acetivibrio thermocellus
[7] = F6P 2 mM constant, 5 mM MgCl2, 2 mM NH4Cl, pH 7.5, 55 °C
[8] = F6P 2 mM constant, 5 mM MgCl2, 2 mM NH4Cl, pH 7.5, 55 °C, extrapolated beyond 2 mM ATP
[9] = fructose 2 mM constant, 5 mM MgCl2, pH 7.5, 55 °C

Molecule: O=P(O)(O)OP(=O)(O)O [PPi]
- % relative activity at 0.05 mM (PfkA [1]): 21%

Molecule: Nc1ncnc2c1ncn2[C@@H]1O[C@H](COP(=O)(O)OP(=O)(O)O)[C@@H](O)[C@H]1O [ADP]
- % relative activity at 2.24 mM (PfkB [2]): 38%

Molecule: C=C(OP(=O)(O)O)C(=O)O [PEP]
- relative activity at 2 mM (PfkA [3]): addition of PEP or PPi caused a decrease in the activity of PfkA

Molecule: Nc1ncnc2c1ncn2[C@@H]1O[C@H](COP(=O)(O)O)[C@@H](O)[C@H]1O [AMP]
- % relative activity at 2.24 mM (PfkB [2]): 38%

Molecule: OC[C@H]1OC(O)[C@H](O)[C@@H](O)[C@H]1O (stereo partly shown) [galactose]
- relative activity at 2.24 mM (PfkB [4]): Galactose also caused a noticeable decrease in activity

B1: PfkA (Acetivibrio thermocellus ATCC 27405) (protein)
chain: MSSVRTIGVLTSGGDAPGMNAAIRSVVRTGLYYGFKVLGIRKGFNGLINGDIEELTARSVGDIIHRGGTILQTARSPQFKTEEGLKKAMSMAKVFGIDALVVIGGDGSYRGARDISKLGLNVIGIPGTIDNDIGCTDYTIGFDTAMNTVQDAIDKIRDTAYSHERCSVLEVMGRHAGYIAVNVSISGGAEAVVLPEKPFDMDTDVIKPIIEGRNRGKKHYLVIVAEGGEGKAIEIAKEITEKTGIEARATILGHIQRGGSPTVYDRVMASQMGAKAVEVLMENKRNRVIVFKDNQIGDMDLEEALQVKKTISEDLIQLSKILAL
notes: N-terminal His6 tag with ~4-kDa linker (pRSET-A, plasmid pAHCT1261), tag kept; codon-optimized, E. coli T7 Shuffle; ~40 kDa monomer
- Km (purified protein [5]; [7]): 200 ± 20 µM
- Vmax (purified protein [5]; [7]): 282 µmol/min/mg
- Km (purified protein [6]; [8]): 2500 ± 960 µM
- Vmax (purified protein [6]; [8]): 430 µmol/min/mg

B2: PfkB (Acetivibrio thermocellus ATCC 27405) (protein)
chain: MFDVVAVGELLIDFLPAGTNENGMPLFSSNPGGAPANVLAMLSKLGAKTAFIGKVGKDGFGQFLKATLDNAGIDTSNLLMSSSEMTTLAFVHLNEKGDRSFSFYRKHCADVSLDAGELDKDLLRTCHFLHFGAVSLTDEPSRTATLEAARIAKEAGAIISYDPNYRPALWSNEHEARKYMLKAVEYADLVKVSEEELWLLAESEDFSKGAHKLLAMGPSVVFVTCGEKGSYVFTGSCKANHCGYDVKVVDTTGAGDAFVGAMLWQLRGMSLEEISQICEQKWGELLAFSNAAGTIVATKKGAIPAMPDLDTINTFMRQFLEEK
notes: N-terminal His6 tag with ~4-kDa linker (pRSET-A, plasmid pAHCT0389), tag kept; codon-optimized, E. coli T7 Shuffle; ~40 kDa monomer
- Km (purified protein [5]; [9]): 200 ± 80 µM
- Vmax (purified protein [5]; [9]): 124 µmol/min/mg
- Km (purified protein [6]; [9]): 400 ± 100 µM
- Vmax (purified protein [6]; [9]): 110 µmol/min/mg
